Data taken from paper PMC2141705.

Target: calnexin (mouse (endogenous in AtT-20)) (UniProt P35564)
Assay: co-IP

Sequence of UniProt P35564 (P35564 21-591): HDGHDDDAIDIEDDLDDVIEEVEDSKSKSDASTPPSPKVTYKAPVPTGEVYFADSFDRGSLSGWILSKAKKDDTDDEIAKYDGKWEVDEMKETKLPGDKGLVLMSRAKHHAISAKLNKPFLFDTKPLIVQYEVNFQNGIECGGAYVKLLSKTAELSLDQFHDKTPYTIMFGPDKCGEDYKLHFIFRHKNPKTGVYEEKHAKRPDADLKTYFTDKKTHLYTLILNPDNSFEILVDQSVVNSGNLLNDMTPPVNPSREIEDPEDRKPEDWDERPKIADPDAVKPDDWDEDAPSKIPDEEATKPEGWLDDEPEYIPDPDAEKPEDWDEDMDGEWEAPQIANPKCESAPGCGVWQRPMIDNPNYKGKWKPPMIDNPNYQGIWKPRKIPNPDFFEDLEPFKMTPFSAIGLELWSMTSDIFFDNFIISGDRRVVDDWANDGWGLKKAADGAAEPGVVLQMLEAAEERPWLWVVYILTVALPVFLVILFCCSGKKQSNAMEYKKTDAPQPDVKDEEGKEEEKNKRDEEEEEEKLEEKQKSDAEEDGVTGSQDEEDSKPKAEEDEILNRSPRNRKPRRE

proPC2 (proenzyme form of prohormone convertase 2) (from UniProt P28841 25-637)
percent of total radiolabeled proPC2 coimmunoprecipitated: 5%
